Read-outs that look alike come from different tables or passages of the source.

The target in experiment [1] is HLA-DR DRB1*0401 (human). Kind of experiment: competition with 125I-labelled reference peptide on purified HLA-DR.
For experiment [2], the target named is HLA-DR DRB1*1302 (human). Described as above.
The target in experiment [3] is HLA-DR DRB1*0101 (human). The experiment is described as above.
For experiment [4], the target named is HLA-DR DRB1*1501 (human). The experiment is described as above.
In experiment [5] the target is HLA-DR DRB1*0405 (human). The description is as above.
For experiment [6], the target named is HLA-DR DRB1*0301 (human). The description is as above.
The target of experiment [7] is HLA-DR DRB1*0404 (human). The experiment is described as above.
The target in experiment [8] is HLA-DR DRB1*1101 (human). The experiment is described as above.
In experiment [9] the target is HLA-DR DRB1*0701 (human). The description is as above.
The target of experiment [10] is purified HLA DRB1*1101 (human). Briefly: competition with 125I-labelled peptide for purified HLA.
The target in experiment [11] is purified HLA DRB1*0404 (human). The description is as above.
Experiment [12] has as its target purified HLA DRB1*1501 (human). The experiment is described as above.
In experiment [13] the target is purified HLA DRB1*1302 (human). The experiment is described as above.
The target of experiment [14] is purified HLA DRB1*0301 (human). The experiment is described as above.
In experiment [15] the target is purified HLA DRB1*0405 (human). Described as above.
Experiment [16] deals with purified HLA DRB1*0701 (human). Described as above.
Experiment [17] addresses purified HLA DRB1*0101 (human). Described as above.
Experiment [18] addresses purified HLA DRB1*0401 (human). The experiment is described as above.
The target of experiment [19] is HLA-DR DRB1*0401 (human). Briefly: competition with 125I-labelled peptide, purified HLA.
The next experiment concerns the target HLA-DR DRB5*0101 (human). The description is as above.
Experiment [20] deals with HLA-DR DRB1*1302 (human). The experiment is described as above.
Experiment [21] has as its target HLA-DR DRB1*0101 (human). Described as above.
The target in experiment [22] is HLA-DR DRB1*1501 (human). The experiment is described as above.
The target of experiment [23] is HLA-DR DRB1*0404 (human). The description is as above.
The next experiment deals with HLA-DR DRB1*0802 (human). The experiment is described as above.
Experiment [24] has as its target HLA-DR DRB1*1101 (human). The experiment is described as above.
In experiment [25] the target is HLA-DR DRB4*0101 (human). Described as above.
In experiment [26] the target is HLA-DR DRB1*0701 (human). Described as above.
In experiment [27] the target is HLA-DR DRB1*0301 (human). Briefly: competition vs 125I-labeled peptide, purified HLA.
The target of experiment [28] is HLA-DR DRB1*0401 (human).
Experiment [29] concerns the target HLA-DR DRB1*1302 (human).
Experiment [30] deals with HLA-DR DRB1*0101 (human).
Experiment [31] addresses HLA-DR DRB1*0405 (human).
The target of experiment [32] is HLA-DR DRB1*0404 (human).
Experiment [33] addresses HLA-DR DRB1*0401 (human). Kind of experiment: competition assay, purified HLA, inhibition of 125I-labelled reference peptide.
The target of experiment [34] is HLA-DR DRB1*1302 (human). The description is as above.
For experiment [35], the target named is HLA-DR DRB1*0101 (human). The experiment is described as above.
The target in experiment [36] is HLA-DR DRB1*1501 (human). The description is as above.
Experiment [37] concerns the target HLA-DR DRB4*0101 (human). The description is as above.
For experiment [38], the target named is HLA-DR DRB1*0405 (human). Briefly: competition with 125I-labelled peptide, purified HLA.
Experiment [39] concerns the target HLA-DR DRB1*0301 (human). The experiment is described as above.
The target in another experiment is HLA-DR DRB1*0901 (human). Described as above.
Experiment [40] deals with purified HLA-DR DRB5*0101 (human). Briefly: competition with 125I-labelled reference peptide, purified HLA.
Experiment [41] concerns the target purified HLA-DR DRB1*0405 (human). The experiment is described as above.
For experiment [42], the target named is purified HLA-DR DRB1*1101 (human). The description is as above.
In experiment [43] the target is purified HLA-DR DRB1*0101 (human). The description is as above.
The target in experiment [44] is purified HLA-DR DRB1*1501 (human). The description is as above.
The target in experiment [45] is purified HLA-DR DRB1*0401 (human). The description is as above.
Experiment [46] concerns the target purified HLA-DR DRB1*0404 (human). The description is as above.
For experiment [47], the target named is purified HLA-DR DRB1*0701 (human). The experiment is described as above.
Experiment [48] concerns the target purified HLA-DR DRB4*0101 (human). The description is as above.
Experiment [49] addresses purified HLA-DR DRB1*0802 (human). Described as above.
Experiment [50] addresses purified HLA DRB1*1101 (human). Kind of experiment: competitive inhibition of 125I-labeled peptide binding to purified HLA.
The target of experiment [51] is purified HLA DRB1*0404 (human). The experiment is described as above.
In experiment [52] the target is purified HLA DRB4*0101 (human). The description is as above.
Experiment [53] addresses purified HLA DRB5*0101 (human). The description is as above.
Experiment [54] deals with purified HLA DRB1*1501 (human). The description is as above.
Experiment [55] addresses purified HLA DRB1*1302 (human). The experiment is described as above.
Experiment [56] has as its target purified HLA DRB1*0301 (human). The description is as above.
Experiment [57] has as its target purified HLA DRB1*0405 (human). The description is as above.
The target of experiment [58] is purified HLA DRB1*0701 (human). Described as above.
For experiment [59], the target named is purified HLA DRB1*0802 (human). The description is as above.
Experiment [60] deals with purified HLA DRB1*0101 (human). Described as above.
Experiment [61] has as its target purified HLA DRB1*0401 (human). The description is as above.

B1: Flu.NP.43 peptide … (peptide)
peptide: YIQMCTELKLSDYEG
modifications: not checked
Consider B1, for which the IC50 with HLA-DR DRB1*0401 (human) [1] is 392 nM; with HLA-DR DRB1*1302 (human) [2], 15400 nM; with HLA-DR DRB1*0101 (human) [3], 320 nM; in the experiment with HLA-DR DRB1*1501 (human) [4], 594 nM; with HLA-DR DRB1*0405 (human) [5], 2690 nM; with HLA-DR DRB1*0301 (human) [6], 368 nM. The IC50 in the experiment with HLA-DR DRB1*0404 (human) [7] is 1640 nM; in the experiment with HLA-DR DRB1*1101 (human) [8], 5840 nM; with HLA-DR DRB1*0701 (human) [9], 5370 nM; in [10], 5840 nM; in experiment [11], 1640 nM; in experiment [12] it was 594 nM. The IC50 in experiment [13] came to 15400 nM; in experiment [14] it was 368 nM; in experiment [15], 2690 nM; in experiment [16] it was 5370 nM; in experiment [17], 320 nM; in experiment [18], 392 nM.

B2: Flu.PB1.199 (peptide)
peptide: TKKMVTQRTIGKKKQ
modifications: not checked
On to B2, for which the IC50 in the experiment with HLA-DR DRB1*0401 (human) [19] was found to be 71 nM; with HLA-DR DRB5*0101 (human), 4.1 nM; with HLA-DR DRB1*1302 (human) [20] it was 6120 nM; with HLA-DR DRB1*0101 (human) [21] it was 1150 nM; with HLA-DR DRB1*1501 (human) [22] it was 9710 nM; with HLA-DR DRB1*0404 (human) [23], 62 nM. Also, the IC50 in the experiment with HLA-DR DRB1*0802 (human) was 55 nM; with HLA-DR DRB1*1101 (human) [24], 449 nM; in the experiment with HLA-DR DRB4*0101 (human) [25] it was 57 nM; in the experiment with HLA-DR DRB1*0701 (human) [26], 14100 nM.

B3: Flu.M1.154 (peptide)
peptide: CEQIADSQHRSHRQM
modifications: not checked
For the molecule B3, the IC50 with HLA-DR DRB1*0301 (human) [27] was 804 nM; with HLA-DR DRB1*0401 (human) [28], more than 10000 nM; with HLA-DR DRB1*1302 (human) [29], more than 10000 nM; with HLA-DR DRB1*0101 (human) [30] it was more than 10000 nM; in the experiment with HLA-DR DRB1*0405 (human) [31], more than 10000 nM; with HLA-DR DRB1*0404 (human) [32] it was more than 10000 nM.

B4: Flu.NS2.125 (peptide)
peptide: VMRMGDLHSLQNRNG
modifications: not checked
B4: the IC50 in the experiment with HLA-DR DRB1*0401 (human) [33] was found to be 448 nM; with HLA-DR DRB1*1302 (human) [34], 1370 nM; in the experiment with HLA-DR DRB1*0101 (human) [35] it was 249 nM; with HLA-DR DRB1*1501 (human) [36], 372 nM; with HLA-DR DRB4*0101 (human) [37], 8820 nM.

B5: Flu.NA.21 (peptide)
peptide: SLMLQIGNMISIWVSHS
modifications: not checked
For B5, the IC50 with HLA-DR DRB1*0401 (human) [19] worked out at 5 nM; in the experiment with HLA-DR DRB5*0101 (human), 24 nM; in the experiment with HLA-DR DRB1*1302 (human) [20] it was 10 nM; in the experiment with HLA-DR DRB1*0101 (human) [21], 8 nM; with HLA-DR DRB1*1501 (human) [22], 8 nM; with HLA-DR DRB1*0405 (human) [38], 66 nM. In addition, the IC50 in the experiment with HLA-DR DRB1*0301 (human) [39] was 441 nM; in the experiment with HLA-DR DRB1*0404 (human) [23] it was 3 nM; with HLA-DR DRB1*0802 (human), 89 nM; in the experiment with HLA-DR DRB1*1101 (human) [24], 83 nM; with HLA-DR DRB1*0901 (human) it was 86 nM; in the experiment with HLA-DR DRB4*0101 (human) [25], 8 nM. The same molecule came in with an IC50 with HLA-DR DRB1*0701 (human) [26] of 13 nM.

B6: Flu.NS2.87 (peptide)
peptide: DILMRMSKMQLGSSS
modifications: not checked
As to B6, the IC50 with HLA-DR DRB1*0401 (human) [33] amounted to 717 nM; with HLA-DR DRB1*1302 (human) [34], 423 nM; with HLA-DR DRB1*0101 (human) [35] it was 2140 nM; with HLA-DR DRB1*1501 (human) [36], 748 nM; with HLA-DR DRB4*0101 (human) [37], 11 nM.

B7: Flu.PB2.690 (peptide)
peptide: ESAVLRGFLILGKED
modifications: not checked
As to B7, the concentration for half-maximal inhibition (IC50) in experiment [40] was 303 nM; in [41], 7100 nM; in experiment [42], 1030 nM; in [43], 8.4 nM; in experiment [44] it was 39 nM; in experiment [45] it was 13200 nM. Besides, the IC50 came to 110 nM in experiment [46], 2470 nM in [47], 1280 nM in experiment [48] and 803 nM in experiment [49].

B8: Flu.PA.127 peptide … (peptide)
peptide: RREVHIYYLEKANKI
modifications: not checked
With B8, the IC50 in experiment [50] came to 96 nM; in [51] it was 181 nM; in [52], 5 nM; in experiment [53], 25 nM; in [54], 4.5 nM; in [55] it was 150 nM. In addition, the 50% inhibitory concentration (IC50) in experiment [56] was more than 10000 nM; in experiment [57], 1490 nM; in [58] it was 23 nM; in experiment [59], 95 nM; in experiment [60], 34 nM; in experiment [61], 63 nM.

Source of the values: patent US20080032921A1.
